Columns and labels:
IL18 = molecular target: T1, IL18 (Homo sapiens, UniProt Q14116); details: Kim et al., PNAS 2000; read-out: Dissociation constant (Kd) for IL18; cited from earlier work
T1 sequence (Q14116 37-193): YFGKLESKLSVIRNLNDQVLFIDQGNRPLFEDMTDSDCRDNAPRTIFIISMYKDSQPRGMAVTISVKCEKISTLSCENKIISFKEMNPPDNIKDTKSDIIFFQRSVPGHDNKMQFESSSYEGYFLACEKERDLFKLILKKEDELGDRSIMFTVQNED

[1] = MC38ova tumor-bearing mice treated with anti-mIL18BP or engineered mIL-18: weight, serum cytokines, spleen; type: in vivo, mouse; details: spleens harvested 24 hours after the 4th treatment (IL-15: single dose), vs control
Description: Experiments were performed in C57Bl/6 (female, 6-8 wk, Envigo). Mice were anesthetized with 10% Ketamine and 10% Xylazine mixture injected intraperitoneal. Next, mice were inoculated with MC38ova cells (1.2×10^6) subcutaneously to the right flank in 50 μl/mice.
Spleens were harvested from mice 24 hours after the 4th treatment and weighed. For IL15 experiments, mice were treated with a single dose of 0.5 μg, 1.5 μg of IL15, or with a mix of 0.5 μg IL15 and 2.33 μg IL15R.

[2] = molecular target: T2, recombinant human IL18-BP (Homo sapiens, UniProt O95998); test: MEL624:TIL assay, IFNγ secretion; type: cell-based; details: rhIL-18 30 ng/ml + rhIL-18BP 1 μg/ml, 24 h, vs isotype control
T2 construct: purchased R&D systems 119-BP; host or cells: added to MEL624/PD-L1 + CMV-reactive T-cell culture
T2 sequence (O95998 31-194): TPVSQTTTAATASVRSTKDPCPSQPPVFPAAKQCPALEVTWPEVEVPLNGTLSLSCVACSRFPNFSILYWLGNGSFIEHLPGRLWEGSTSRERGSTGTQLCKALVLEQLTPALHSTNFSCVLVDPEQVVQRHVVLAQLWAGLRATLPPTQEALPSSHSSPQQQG
Description: Human MEL624 cells were thawed and grown in DMEM with 10% FBS, 1% Glutamax, 1% Penicillin-Streptomycin Solution and 1% HEPES buffer. The cells were then seeded at 75 k cells/well in a 96 well plate in the assay medium (IMDM with 10% human serum, 1% Glutamax, 1% MEM eagle, 1% Sodium Pyruvate and 1% Penicillin-Streptomycin Solution) and incubated 1 hour in 37° C., 5% CO2 incubator before co-culture with human tumor infiltrating lymphocytes that were previously expanded using known melanoma antigens (TILs). Human TILs were thawed in full TIL media and 75 k cells/well were co-cultured with the MEL624 cells to create an effector:target ratio of 1:1. The co-cultured cells were then treated with rhIL-18 (30 ng/ml) and rhIL-18BP (1 μg/ml) for 30 min in 37° C., 5% CO2 incubator to allow IL-18:IL-18BP complex formation. After 30 minutes, anti-human IL-18BP mAb (ADI-71722, dose titration, 30 μg/ml-0.01 μg/ml, dilution factor of 1:3) or relevant isotype control (hIgG1 30 μg/ml) were added to the co-culture to examine its capability to restore IL-18 activity. Cells and all added solutions were prepared in full assay medium to a final volume of 200 μl/well. Plates were incubated for 24 hours in 37° C., 5% CO2 incubator, after which the supernatant was collected for cytokine secretion evaluation. […]
Where applicable, the EC50 value was calculated using GraphPad Prism software.

[3] = molecular target: T2, recombinant human IL18-BP; test: CMV recall assay, IFNγ secretion by CMV-reactive T-cells; type: cell-based; details: rhIL-18 30 ng/ml + rhIL-18BP 2 μg/ml; antibodies 10 μg/ml
Description: Human MEL-624 overexpressing PD-L1 cells were thawed and loaded with CMV pp65 peptide (0.03 μg/ml). The cells were seeded at 100K/well in a 96 well plate and incubated for 30 minutes in 37° C., 5% CO2 incubator with a combination rhIL-18 (30 ng/ml, R&D systems, 9124-IL/CF) and rhIL-18BP-Fc chimeric protein ([…], R&D systems 119-BP) to allow IL-18+IL-18BP complex formation. After 30 minutes, anti-human IL-18BP (ADI-71722, anti-human PVRIG, anti-human TIGIT (anti-TIGIT), anti-human PD1 (Pembrolizumab) or relevant isotype control (hIgG4) were added to the culture to examine their capability to restore IL-18 activity. All antibodies were added to a final concentration of 10 μg/ml. 30 minutes post incubation with antibodies, thawed CMV-reactive T-cells were added to the culture. Cells and all added solutions were prepared in full IMDM (IMDM media with 10% human serum, 1% Glutamax, 1% MEM eagle, 1% sodium pyruvate, and 1% Penicillin-Streptomycin Solution) to a final volume of 200 μl/well. Plates were incubated for 24 hours in 37° C., 5% CO2 incubator, after which the supernatant was collected for IFNγ secretion evaluation. All tests were done in triplicates and each repeated with three donors.
MEL624 cells that overexpress PD-L1 were loaded with CMV peptide pp65. […] CMV-specific T-cells were then added to the culture and IFNg secretion was measured after an overnight incubation.

MEL624 cells = test: Killing of MEL624 melanoma cells by human TILs (IncuCyte); type: cell-based; details: rhIL-18 50 ng/ml + rhIL-18BP 1 μg/ml, 10 μg/ml antibody, 72 hours
Description: MEL624 cells were co-cultured with human TILs that were previously enriched for MARTI or gp100 peptide-specific clones. rhIL-18 (R&D systems, 50 ng/ml) and rhIL-18BP (R&D systems, 1 μg/ml) were added to the co-culture for 30 minutes to allow the formation of IL-18:IL-18BP complex prior to treatment with 10 μg/ml ADI-71739 or isotype control. The co-culture was monitored for 72 hours using an IncuCyte live cell imaging instrument. […] In the presence of the isotype control antibody (black), IL-18BP abrogated the effects of IL-18, while the anti-IL-18BP antibody (turquoise) was able to completely restore these effects.

endogenous IL-18BP = molecular target: T3, endogenous IL-18BP (Homo sapiens, UniProt O95998); test: MEL624:TIL co-culture with endogenous IL-18BP levels, IFNg release; type: cell-based; details: IL-18 3.7 ng/ml, 5 μg/ml antibody, 18 hours, vs isotype
T3 construct: endogenous in cells; host or cells: MEL624 cells co-cultured with human TILs
T3 sequence (O95998 31-194): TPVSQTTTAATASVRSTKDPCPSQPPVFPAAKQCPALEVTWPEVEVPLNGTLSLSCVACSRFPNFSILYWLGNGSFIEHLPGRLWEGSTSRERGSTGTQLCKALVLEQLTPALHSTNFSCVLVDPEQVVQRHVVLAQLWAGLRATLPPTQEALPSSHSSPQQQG
Description: A. Schematic representation of assay setup. MEL624 cells were co-cultured with human TILs that were previously enriched for MARTI or gp100 peptide-specific clones. IL-18 (3.7 ng/ml) was added to the co-culture along with 5 μg/ml ADI-71739 or isotype control. The co-culture was set for 18 hours following which IFNg levels were measured in supernatants. B. IFNg levels were increased in co-cultures treated with ADI-71739 (turquoise) as compared with isotype-treated samples (black). Representative examples from two TIL donors are shown.

human whole blood = test: Whole blood loop assay (ID.Flow); type: cell-based; details: ex vivo whole blood loop, six healthy volunteers, 24 hr
Description: Flow, an ex vivo system that mimics the human blood circulation. Fresh whole blood was taken from six healthy volunteers and immediately transferred to a whole blood loop system. The test items were administered, and the blood was set to circulate at 37° C. to prevent clotting. Blood samples collected at the 24 hr time point were analyzed for hematology and flow cytometry parameters and then processed to plasma for cytokine analysis. The anti-CD52 antibody Alemtuzumab was included as a reference antibody with manageable cytokine release in the clinic.

IL18-BPa: most abundant human IL18-BP isoform, isoform a
Kd (IL18): ~0.4 nM

IL-15: IL15 given as single dose of 0.5 μg or 1.5 μg, or mixed with IL15R [reference compound]
Spleen size [1]: larger than controls

B1: ADI-71739: anti-IL18-BP antibody, VH SEQ ID NO: 154, VL SEQ ID NO: 159 (FIG. 2K), 66716 lineage (antibody, V domains shown)
VH: QLQLQESGPGLVKPSETLSLTCTVSGGSISSPDYPWGWIRQPPGKGLEWIGSIYYQGATYYNPSLKSRVTISVDTSKNQFSLKLSSVTAADTAVYYCARGPYRQLFDYWGQGTLVTVSS
VL: DIQMTQSPSSVSASVGDRVTITCRASQGISSWLAWYQQKPGKAPKLLIYAASSLQSGVPSRFSGSGSGTDFTLTISSLQPEDFATYYCQQGSVFPYTFGGGTKVEIK
IFNγ secretion from TILs [2]: increase IFNγ secretion from TILs compared to isotype control | IFNγ secretion by CMV-reactive T-cells [3]: increase IFNγ secretion by the T cells | Killing of melanoma cells by tumor infiltrating lymphocytes (MEL624 cells): increased killing of melanoma cells by tumor infiltrating lymphocytes | IFNg release by tumor infiltrating lymphocytes (endogenous IL-18BP): increased IFNg release by tumor infiltrating lymphocytes

B2: ADI-71722: anti-IL18-BP antibody, VH SEQ ID NO: 84, VL SEQ ID NO: 89 (FIG. 2D), 66670 lineage (antibody, V domains shown)
VH: QVQLVQSGAEVKKPGSSVKVSCKASGGTFSEYPISWVRQAPGQGLEWMGGIIPGAGTAIYAQKFQGRVTITADESTSTAYMELSSLRSEDTAVYYCARGRHFHETWGQGTLVTVSS
VL: DIQMTQSPSSVSASVGDRVTITCRASQGISSWLAWYQQKPGKAPKLLIYAASSLQSGVPSRFSGSGSGTDFTLTISSLQPEDFATYYCQQVYRFPWTFGGGTKVEIK
IFNγ secretion by CMV-reactive T-cells [3]: fully restore IFNγ secretion

B3: ADI-71709: anti-IL18-BP antibody, VH SEQ ID NO: 54, VL SEQ ID NO: 59 (FIG. 2A), 66650 lineage (antibody, V domains shown)
VH: QVQLVQSGAEVKKPGASVKVSCEASGYTFDIYAVHWVRQAPGQRLEWMGWIHAGTGATKYSQKFQGRVTITRDTSASTAYMELSSLRSEDTAVYYCARGLGEVGPTGTSWFDPWGQGTLVTVSS
VL: DIQMTQSPSTLSASVGDRVTITCRASQSISSWLAWYQQKPGKAPKLLIYEASSLESGVPLRFSGSGSGTEFTLTISSLQPDDFATYYCQQYRQSPFTFGGGTKVEIK
Signs of systemic immune activation (human whole blood): did not show signs of systemic immune activation

— patent US20250297018A1, “IL-18BP ANTAGONIST ANTIBODIES AND THEIR USE IN MONOTHERAPY AND COMBINATION THERAPY IN THE TREATMENT OF CANCER” (Compugen Ltd., priority 2022, published 2025)
